Assay results published in PMC2807033.

Target: RepΔC33 (Rep lacking the C-terminal 33 residues) (E. coli) (UniProt P09980)
Experiment: not stated; apparent KD (equilibrium dissociation constant), Figure S5; the method is not told in the text shown (SPR is the only quantitative binding method that the paper names)

- Kd: 1.7 µM
Substance: E. coli replicative helicase DnaB, purified (from UniProt P0ACB0 1-471) (enzyme)
